This note sets out measurements from publication PMC6245935, “Fructose-1,6-bisphosphate aldolase encoded by a core gene of Mycoplasma hyopneumoniae contributes to host cell adhesion” (Veterinary Research, 2018).

This assay deals with fibronectin (UniProt P02751 32-2477). Description: SPR; BIAcore X100 Plus; fibronectin amine-coupled to CM5 chip (2868 RU); rFBA analyte 0-100 ug/mL in HBS-EP (10 mM HEPES, 150 mM NaCl, 3 mM EDTA, 0.05% P20), 30 uL/min, 180 s association, 1000 s dissociation, 20 °C. The following applies: both partners purified.
Chain of fibronectin (P02751 32-2477): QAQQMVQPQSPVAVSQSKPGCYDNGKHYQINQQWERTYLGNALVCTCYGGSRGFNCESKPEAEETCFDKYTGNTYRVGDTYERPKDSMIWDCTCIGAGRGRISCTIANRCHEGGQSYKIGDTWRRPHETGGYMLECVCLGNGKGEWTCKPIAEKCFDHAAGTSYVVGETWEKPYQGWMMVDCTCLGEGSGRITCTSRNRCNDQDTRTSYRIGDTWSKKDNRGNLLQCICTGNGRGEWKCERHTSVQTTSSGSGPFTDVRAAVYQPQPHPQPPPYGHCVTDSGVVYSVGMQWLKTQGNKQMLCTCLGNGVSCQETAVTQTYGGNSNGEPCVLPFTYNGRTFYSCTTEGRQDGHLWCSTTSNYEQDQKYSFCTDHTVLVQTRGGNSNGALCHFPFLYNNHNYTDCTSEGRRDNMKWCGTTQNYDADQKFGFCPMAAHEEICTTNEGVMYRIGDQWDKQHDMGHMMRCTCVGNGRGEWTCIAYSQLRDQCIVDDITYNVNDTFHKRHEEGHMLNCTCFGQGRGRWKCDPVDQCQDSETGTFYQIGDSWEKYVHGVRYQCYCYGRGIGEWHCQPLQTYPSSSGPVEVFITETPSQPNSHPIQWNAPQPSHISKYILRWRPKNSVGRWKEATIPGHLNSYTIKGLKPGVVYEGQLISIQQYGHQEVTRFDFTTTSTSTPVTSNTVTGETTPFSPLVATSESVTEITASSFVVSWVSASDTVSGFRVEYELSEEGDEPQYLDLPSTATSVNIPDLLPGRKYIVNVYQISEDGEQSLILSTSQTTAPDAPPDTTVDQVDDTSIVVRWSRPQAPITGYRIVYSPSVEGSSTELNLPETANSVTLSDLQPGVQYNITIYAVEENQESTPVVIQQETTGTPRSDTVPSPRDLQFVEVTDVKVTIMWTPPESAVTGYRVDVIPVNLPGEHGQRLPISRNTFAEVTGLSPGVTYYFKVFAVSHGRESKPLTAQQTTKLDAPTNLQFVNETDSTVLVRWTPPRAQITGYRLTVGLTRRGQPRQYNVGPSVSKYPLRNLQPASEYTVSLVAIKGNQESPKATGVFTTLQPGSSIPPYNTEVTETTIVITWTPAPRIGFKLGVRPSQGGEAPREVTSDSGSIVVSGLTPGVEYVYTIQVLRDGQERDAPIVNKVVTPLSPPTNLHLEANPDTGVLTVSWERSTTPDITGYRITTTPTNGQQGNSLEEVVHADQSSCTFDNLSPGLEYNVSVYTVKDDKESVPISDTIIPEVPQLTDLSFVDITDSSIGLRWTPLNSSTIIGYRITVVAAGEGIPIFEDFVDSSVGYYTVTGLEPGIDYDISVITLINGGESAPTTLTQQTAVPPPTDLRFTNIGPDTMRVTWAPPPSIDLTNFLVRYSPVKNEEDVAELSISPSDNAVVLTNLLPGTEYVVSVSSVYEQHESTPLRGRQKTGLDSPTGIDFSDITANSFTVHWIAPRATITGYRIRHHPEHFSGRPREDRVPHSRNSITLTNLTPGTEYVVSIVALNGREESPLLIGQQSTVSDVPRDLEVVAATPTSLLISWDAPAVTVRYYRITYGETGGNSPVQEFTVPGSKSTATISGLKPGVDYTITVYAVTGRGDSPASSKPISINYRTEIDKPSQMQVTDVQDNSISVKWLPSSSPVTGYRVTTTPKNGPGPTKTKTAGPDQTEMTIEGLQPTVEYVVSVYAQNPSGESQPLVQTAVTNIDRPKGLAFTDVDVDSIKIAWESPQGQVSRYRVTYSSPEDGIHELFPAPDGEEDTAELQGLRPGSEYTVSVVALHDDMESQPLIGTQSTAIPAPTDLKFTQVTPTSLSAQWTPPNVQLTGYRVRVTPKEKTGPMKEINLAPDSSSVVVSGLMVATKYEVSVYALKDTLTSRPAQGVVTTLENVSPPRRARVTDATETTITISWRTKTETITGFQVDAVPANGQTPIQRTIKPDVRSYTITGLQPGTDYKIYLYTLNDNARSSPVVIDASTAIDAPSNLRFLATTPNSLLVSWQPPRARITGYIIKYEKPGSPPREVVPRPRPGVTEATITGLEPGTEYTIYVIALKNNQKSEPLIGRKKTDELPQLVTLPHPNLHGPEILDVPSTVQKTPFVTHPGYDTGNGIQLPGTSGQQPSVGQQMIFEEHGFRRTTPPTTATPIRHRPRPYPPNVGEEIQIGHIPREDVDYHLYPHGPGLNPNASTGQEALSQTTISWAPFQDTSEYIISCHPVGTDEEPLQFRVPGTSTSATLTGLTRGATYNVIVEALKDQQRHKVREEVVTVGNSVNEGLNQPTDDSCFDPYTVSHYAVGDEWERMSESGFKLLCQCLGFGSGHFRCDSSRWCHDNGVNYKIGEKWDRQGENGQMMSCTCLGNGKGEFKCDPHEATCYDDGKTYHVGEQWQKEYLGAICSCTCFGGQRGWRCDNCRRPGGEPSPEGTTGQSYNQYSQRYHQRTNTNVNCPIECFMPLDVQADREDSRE

B1: recombinant fructose-1,6-bisphosphate aldolase (rFBA) of Mycoplasma hyopneumoniae strain 168 (enzyme)
chain: MKTIISIAIDFLKNRESAHFSDIFLEVQTSLMSKWENQLPNLSTDKILTLKRGELYKLLSIDGNFVPLGDNYWTLRSDLNALVFFFFFFLKVFDCKKKKKKYRKGKMQLVNTKEMLEKALKNNYAIPHININNLEWTKAALLAAQAKKSPLIIGTSERVLTYMGGLKTIYNLVTNLIDYFKITVPVALHLDHGTYLTCKEALKNGYTSVMYDGSKEKFELNLERTEEIVRLANKVNATVEAEVGQIGGEEDGVIGNGEIANPENAKKITETGITCLAAGIGNIHGIYPPDWKSLNFEILEKISKVTKIPLVLHGGSGIPKDQIQKAIKLGIAKINVNTELQQANAAAISEFVLSGKVKQGKNFDPRKLLAPGTDAIQLLIEEKITEFGSANQA
notes: Fructose-1,6-bisphosphate aldolase (FBA) of Mycoplasma hyopneumoniae strain 168, full-length fba gene, locus MHP168_014, GenBank ADQ90241.1; The gene was cloned by site-directed mutation and overlap extension PCR 'due to the existence of rare codons'; also called fructose-bisphosphate aldolase; source: Escherichia coli BL21 (DE3), purified by Ni-chelating chromatography
For the molecule B1, the Kd – broadly, the concentration at which binding is half-saturated – was 0.468 ± 0.023 µM and the association rate constant (kon) (usually a measure of how fast the partners come together) stood at 3470 ± 580 M⁻¹ s⁻¹.
